Source: publication PMC3916536

What was measured:
[1] = molecular target: HLA-A2/D76N β2m/NY-ESO-1(Y1V9) complex; assay: native MS; nano-ESI-MS, 10 μM protein, 100 mM ammonium acetate, pH 7, declustering potential 50 V, complexes with peptide I
[2] = molecular target: HLA-A2/WT β2m/NY-ESO-1(Y1V9) complex; assay: as above

stoichiometry N [1]	stoichiometry N [2]	Substance
2		HLA-A2/D76N β2m/NY-ESO-1(Y1V9) complex (from UniProt P61769 21-119) (peptide-MHC)
	2	HLA-A2/WT β2m/NY-ESO-1(Y1V9) complex (from UniProt P61769 21-119) (peptide-MHC)
